Experimental data reported in patent publication US20210388065A1 (published 2021).

B1: 105-9 antibody (antibody, V domains shown)
VH: EVQLVESGGGLVKPGRSLRLSCTASGFTFGDYAMSWFRQAPGKGLEWVGFIRSKAYGWTTQYAASVKGRFTISRDDSKSIAYLQMKSLNSEDTAVYYCTRDPWGTTYFDYWGQGTLVTVSS
VL: EIVMTQSPATLSVSPGERATLSCRASQSVSSNLAWYQQKPGQGPRLLIYGASTRATGVPARFSGSGSGTDFTLTISSLQSEDFAIYYCQHYNNWFTFGQGTKVEIK
B2: 105-43 antibody (antibody, V domains shown)
VH: EVQLVESGGGLVQPGGSLRLSCAASGFTFSSYDMHWVRQATGKGLEWISAIGTTGDIYYADSVKGRFTISRENAENSLYLQMNSLRAGDTAVYYCARYRGAFDVWGQGTMVTVSS
VL: EIVMTQSPVTLSLSPGERATLSCRASQSVGTYLAWYQQKPGQAPRLLIYDASNRATRIPARFSGSGSGTDFTLTISSLEPEDFAVYYCQQGSNWPLTFGGGTKVEIK
B3: 105-38 antibody (antibody, V domains shown)
VH: EVQLVESGGGLVQPGGSLRLSCAASGFTFSSYWMHWVRQAPGKGLVWVSRINSDGSSTSYADSVKGRFTISRDNAKNTLYLQMNSLRAEDTAVYYCARVQWLRGEFDYWGQGTLVTVSS
VL: DVVLTQPHSVSESPGKTVTISCTGSSGSIASNYVQWYQQRPGSAPTTVIYEDNQRPSGVPDRFSGSIDSSSNSASLTISGLKTEDEADYYCQSYDSSTDVVFGGGTELTVL
B4: 414-1 antibody (antibody, V domains shown)
VH: QVQLVQSGAEVKKPGASVKVSCKASGYTFTSYYMHWVRQAPGQGLEWMGIINPSGGSTSYAQKFQGRVTMTRDTSTSTVYMELSSLRSEDTAVYYCARGALGCSSTSCYPNNFDYWGQGTLVTVSS
VL: not shown
B5: 414-3-2 antibody (antibody, V domains shown)
VH: QVQLVESGGGVVQPGRSLRLSCAASGFTFSSYAMHWVRQAPGKGLEWVALISYDGSNKYYADSVKGRFTISRDNSKNTLYLQMNSLRAEDTAVYYCARDGGGWFDPWGQGTLVTVSS
VL: QTVVTQPASVSGSPGQSITISCTGTSSDVGGYNYVSWYQQHPGKAPKLMIYDVSKRPSGVSNRFSGSKSGNTASLTISGLQAEDEADYYCSSYTSSSPWVFGGGTELTVL

Target: T1, SARS-CoV-2 Spike protein (Receptor Binding Domain, RBD) (UniProt P0DTC2 331-524)
Assay: ELISA

| Binder | IC50 |
| --- | --- |
| B1 | 25.2 nM |
| B2 | 59 nM |
| B3 | 0.598 nM |
| B4 | 6.68 nM |

Target: T1, SARS-CoV-2 Spike protein (Receptor …)
Assay: ELISA
Remark: another data set of the same source

| Binder | EC50 |
| --- | --- |
| B1 | 15.1 nM |
| B2 | 12.1 nM |
| B5 | 6.66 nM |
| B3 | 0.425 nM |
| B4 | 1.26 nM |
